Measured values reported in patent US20210388087A1 (Chugai, published 2021).
Numbering of substitutions follows the chain as printed.

B1: H183/L072 VL G91L (antibody, name in Kabat numbering, V domains shown)
VH: QVQLVESGGGLVQPGRSLRLSCAASGFTFSNAWMHWVRQAPGKGLEWVAQIKDKGNAYAAYYAPSVKGRFTISRDDSKNSIYLQMNSLKTEDTAVYYCHYVHYASASTVLPAFGVDAWGQGTTVTVSS
VL: DIVMTQSPLSLPVTPGEPASISCQASQELVHMNRNTYLHWYQQKPGQAPRLLIYKVSNRFPGVPDRFSGSGSGTDFTLKISRVEAEDVGVYYCAQLTSVPFTFGQGTKLEIK
notes: Dual-Ig
B2: H183/L072 VL H27dA (antibody, name in Kabat numbering, V domains shown)
VH: B1 VH
VL: B1 VL with H31A, L96G
notes: Dual-Ig
B3: H183/L072 VL H27dV (antibody, name in Kabat numbering, V domains shown)
VH: B1 VH
VL: B1 VL with H31V, L96G
notes: Dual-Ig
B4: H183/L072 VL G91S (antibody, name in Kabat numbering, V domains shown)
VH: B1 VH
VL: B1 VL with L96S
notes: Dual-Ig
B5: H183/L072 VL H34V (antibody, name in Kabat numbering, V domains shown)
VH: B1 VH
VL: B1 VL with H39V, L96G
notes: Dual-Ig
B6: H183/L072 VL H27dG (antibody, name in Kabat numbering, V domains shown)
VH: B1 VH
VL: B1 VL with H31G, L96G
notes: Dual-Ig
B7: H183/L072 VL H27dR (antibody, name in Kabat numbering, V domains shown)
VH: B1 VH
VL: B1 VL with H31R, L96G
notes: Dual-Ig
B8: H183/L072 VL G91N (antibody, name in Kabat numbering, V domains shown)
VH: B1 VH
VL: B1 VL with L96N
notes: Dual-Ig
B9: H183/L072 VL H27dP (antibody, name in Kabat numbering, V domains shown)
VH: B1 VH
VL: B1 VL with H31P, L96G
notes: Dual-Ig
B10: H183/L072 VL K50G (antibody, name in Kabat numbering, V domains shown)
VH: B1 VH
VL: B1 VL with K55G, L96G
notes: Dual-Ig
B11: H183/L072 VL G91T (antibody, name in Kabat numbering, V domains shown)
VH: B1 VH
VL: B1 VL with L96T
notes: Dual-Ig
B12: H183/L072 VL K50Q (antibody, name in Kabat numbering, V domains shown)
VH: B1 VH
VL: B1 VL with K55Q, L96G
notes: Dual-Ig
B13: H183/L072 VL K50I (antibody, name in Kabat numbering, V domains shown)
VH: B1 VH
VL: B1 VL with K55I, L96G
notes: Dual-Ig
B14: H183/L072 VL H27dM (antibody, name in Kabat numbering, V domains shown)
VH: B1 VH
VL: B1 VL with H31M, L96G
notes: Dual-Ig
B15: H183/L072 VL G91W (antibody, name in Kabat numbering, V domains shown)
VH: B1 VH
VL: B1 VL with L96W
notes: Dual-Ig
B16: H183/L072 VL G91M (antibody, name in Kabat numbering, V domains shown)
VH: B1 VH
VL: B1 VL with L96M
notes: Dual-Ig
B17: H183/L072 VL K50M (antibody, name in Kabat numbering, V domains shown)
VH: B1 VH
VL: B1 VL with K55M, L96G
notes: Dual-Ig
B18: H183/L072 VL H27dK (antibody, name in Kabat numbering, V domains shown)
VH: B1 VH
VL: B1 VL with H31K, L96G
notes: Dual-Ig
B19: H183/L072 VL H34L (antibody, name in Kabat numbering, V domains shown)
VH: B1 VH
VL: B1 VL with H39L, L96G
notes: Dual-Ig
B20: H183/L072 VL K50H (antibody, name in Kabat numbering, V domains shown)
VH: B1 VH
VL: B1 VL with K55H, L96G
notes: Dual-Ig
B21: H183/L072 VL H34I (antibody, name in Kabat numbering, V domains shown)
VH: B1 VH
VL: B1 VL with H39I, L96G
notes: Dual-Ig
B22: H183/L072 VL H27dY (antibody, name in Kabat numbering, V domains shown)
VH: B1 VH
VL: B1 VL with H31Y, L96G
notes: Dual-Ig
B23: H183/L072 VL H27dS (antibody, name in Kabat numbering, V domains shown)
VH: B1 VH
VL: B1 VL with H31S, L96G
notes: Dual-Ig
B24: H183/L072 VL G91R (antibody, name in Kabat numbering, V domains shown)
VH: B1 VH
VL: B1 VL with L96R
notes: Dual-Ig
B25: H183/L072 VL H27dQ (antibody, name in Kabat numbering, V domains shown)
VH: B1 VH
VL: B1 VL with H31Q, L96G
notes: Dual-Ig
B26: H183/L072 VL H27dN (antibody, name in Kabat numbering, V domains shown)
VH: B1 VH
VL: B1 VL with H31N, L96G
notes: Dual-Ig
B27: H183/L072 VL K50E (antibody, name in Kabat numbering, V domains shown)
VH: B1 VH
VL: B1 VL with K55E, L96G
notes: Dual-Ig
B28: H183/L072 VL H27dD (antibody, name in Kabat numbering, V domains shown)
VH: B1 VH
VL: B1 VL with H31D, L96G
notes: Dual-Ig
B29: H183/L072 VL H34P (antibody, name in Kabat numbering, V domains shown)
VH: B1 VH
VL: B1 VL with H39P, L96G
notes: Dual-Ig
B30: H183/L072 VL H27dL (antibody, name in Kabat numbering, V domains shown)
VH: B1 VH
VL: B1 VL with H31L, L96G
notes: Dual-Ig
B31: H183/L072 VL G91Q (antibody, name in Kabat numbering, V domains shown)
VH: B1 VH
VL: B1 VL with L96Q
notes: Dual-Ig
B32: H183/L072 VL K50R (antibody, name in Kabat numbering, V domains shown)
VH: B1 VH
VL: B1 VL with K55R, L96G
notes: Dual-Ig
B33: H183/L072 VL G91P (antibody, name in Kabat numbering, V domains shown)
VH: B1 VH
VL: B1 VL with L96P
notes: Dual-Ig
B34: H183/L072 VL H34M (antibody, name in Kabat numbering, V domains shown)
VH: B1 VH
VL: B1 VL with H39M, L96G
notes: Dual-Ig
B35: H183/L072 VL H27dE (antibody, name in Kabat numbering, V domains shown)
VH: B1 VH
VL: B1 VL with H31E, L96G
notes: Dual-Ig
B36: H183/L072 VL K50D (antibody, name in Kabat numbering, V domains shown)
VH: B1 VH
VL: B1 VL with K55D, L96G
notes: Dual-Ig
B37: H183/L072 VL K50F (antibody, name in Kabat numbering, V domains shown)
VH: B1 VH
VL: B1 VL with K55F, L96G
notes: Dual-Ig
B38: H183/L072 VL K50P (antibody, name in Kabat numbering, V domains shown)
VH: B1 VH
VL: B1 VL with K55P, L96G
notes: Dual-Ig
B39: H183/L072 VL G91V (antibody, name in Kabat numbering, V domains shown)
VH: B1 VH
VL: B1 VL with L96V
notes: Dual-Ig
B40: H183/L072 VL K50N (antibody, name in Kabat numbering, V domains shown)
VH: B1 VH
VL: B1 VL with K55N, L96G
notes: Dual-Ig
B41: H183/L072 VL K50L (antibody, name in Kabat numbering, V domains shown)
VH: B1 VH
VL: B1 VL with K55L, L96G
notes: Dual-Ig
B42: H183/L072 VL K50A (antibody, name in Kabat numbering, V domains shown)
VH: B1 VH
VL: B1 VL with K55A, L96G
notes: Dual-Ig
B43: H183/L072 VL H27dT (antibody, name in Kabat numbering, V domains shown)
VH: B1 VH
VL: B1 VL with H31T, L96G
notes: Dual-Ig
B44: H183/L072 VL H27dF (antibody, name in Kabat numbering, V domains shown)
VH: B1 VH
VL: B1 VL with H31F, L96G
notes: Dual-Ig
B45: H183/L072 VL H27dW (antibody, name in Kabat numbering, V domains shown)
VH: B1 VH
VL: B1 VL with H31W, L96G
notes: Dual-Ig
B46: H183/L072 VL H27dI (antibody, name in Kabat numbering, V domains shown)
VH: B1 VH
VL: B1 VL with H31I, L96G
notes: Dual-Ig

Target: T1, Human CD137 ECD (human)
T1 construct: entry includes C-terminal His-tag and biotin acceptor peptide; also called human CD137 extracellular domain; 4-1BB
Assay: Biacore SPR, vs parent H183/L072

T1 sequence (chain, as listed by the source limits assumed): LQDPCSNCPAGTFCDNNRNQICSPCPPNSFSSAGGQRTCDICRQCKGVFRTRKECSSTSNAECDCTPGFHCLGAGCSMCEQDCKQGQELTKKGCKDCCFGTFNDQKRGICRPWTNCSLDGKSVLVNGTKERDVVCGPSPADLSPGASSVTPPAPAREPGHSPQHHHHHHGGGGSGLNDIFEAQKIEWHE

Row | fold change of affinity [fold] | Binder
1 | 0 | B1
2 | 0.7 | B2
3 | 0.7 | B3
4 | 0 | B4
5 | 0 | B5
6 | 0.6 | B6
7 | 0.6 | B7
8 | 0 | B8
9 | 0.8 | B9
10 | 0 | B10
11 | 0 | B11
12 | 0.2 | B12
13 | 2.5 | B13
14 | 0.6 | B14
15 | 0 | B15
16 | 0 | B16
17 | 2.9 | B17
18 | 0.6 | B18
19 | 0.1 | B19
20 | 0 | B20
21 | 0 | B21
22 | 0.5 | B22
23 | 0.6 | B23

Row | fold change of affinity [fold] | Binder
24 | 0 | B24
25 | 0.6 | B25
26 | 0.5 | B26
27 | 0 | B27
28 | 0.3 | B28
29 | 0 | B29
30 | 0.6 | B30
31 | 0 | B31
32 | 1.7 | B32
33 | 0 | B33
34 | 0 | B34
35 | 0.6 | B35
36 | 0 | B36
37 | 0.1 | B37
38 | 0 | B38
39 | 0 | B39
40 | 0.4 | B40
41 | 1 | B41
42 | 0.1 | B42
43 | 0.6 | B43
44 | 0.4 | B44
45 | 0.5 | B45
46 | 0.8 | B46
